In IntAct's records for PubMed 25766235:

B1: Regulator of G-protein signaling 2 (Homo sapiens), P41220-1 (parent)
chain: MQSAMFLAVQHDCRPMDKSAGSGHKSEEKREKMKRTLLKDWKTRLSYFLQNSSTPGKPKTGKKSKQQAFIKPSPEEAQLWSEAFDELLASKYGLAAFRAFLKSEFCEENIEFWLACEDFKKTKSPQKLSSKARKIYTDFIEKEAPKEINIDFQTKTLIAQNIQEATSGCFTTAQKRVYSLMENNSYPRFLESEFYQDLCKKPQITTEPHAT
partner: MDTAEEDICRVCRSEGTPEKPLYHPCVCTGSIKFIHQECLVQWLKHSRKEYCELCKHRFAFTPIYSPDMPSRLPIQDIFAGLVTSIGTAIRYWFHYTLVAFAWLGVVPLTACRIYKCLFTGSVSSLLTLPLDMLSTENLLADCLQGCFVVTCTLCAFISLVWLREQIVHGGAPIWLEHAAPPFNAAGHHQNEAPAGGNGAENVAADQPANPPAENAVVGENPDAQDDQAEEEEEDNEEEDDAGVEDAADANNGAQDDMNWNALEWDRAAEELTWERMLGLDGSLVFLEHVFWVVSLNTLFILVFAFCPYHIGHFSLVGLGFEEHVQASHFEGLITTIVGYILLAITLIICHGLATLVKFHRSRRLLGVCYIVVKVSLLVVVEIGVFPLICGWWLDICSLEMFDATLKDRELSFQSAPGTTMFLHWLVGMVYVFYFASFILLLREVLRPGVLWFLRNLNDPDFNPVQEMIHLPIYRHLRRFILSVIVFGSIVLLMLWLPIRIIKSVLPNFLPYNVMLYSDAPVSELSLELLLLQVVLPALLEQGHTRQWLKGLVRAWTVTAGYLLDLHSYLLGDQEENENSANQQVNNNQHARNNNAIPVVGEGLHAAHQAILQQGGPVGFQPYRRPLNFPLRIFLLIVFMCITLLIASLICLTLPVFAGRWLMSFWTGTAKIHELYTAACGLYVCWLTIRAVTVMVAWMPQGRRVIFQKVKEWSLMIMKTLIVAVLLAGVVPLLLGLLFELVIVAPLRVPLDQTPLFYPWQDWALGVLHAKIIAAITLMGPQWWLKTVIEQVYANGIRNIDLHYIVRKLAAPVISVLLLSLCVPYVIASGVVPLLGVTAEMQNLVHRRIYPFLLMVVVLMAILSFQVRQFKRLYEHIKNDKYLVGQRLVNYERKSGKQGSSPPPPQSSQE

Variants of: B1
Conditions: with marh6_human MARCHF6, O60337

effect of a mutation on the interaction	Variant
disrupting interaction strength	PQSAMFLAVQHDCRPMDKSAGSGHKSEEKREKMKRTLLKDWKTRLSYFLQNSSTPGKPKTGKKSKQQAFIKPSPEEAQLWSEAFDELLASKYGLAAFRAFLKSEFCEENIEFWLACEDFKKTKSPQKLSSKARKIYTDFIEKEAPKEINIDFQTKTLIAQNIQEATSGCFTTAQKRVYSLMENNSYPRFLESEFYQDLCKKPQITTEPHAT [M1P]
